Square brackets hold non-standard residues; d marks the D form. Ends that are not written are not given here. pT = C[C@@H](OP(=O)(O)O)[C@H](N)C(=O)O; pS = N[C@@H](COP(=O)(O)O)C(=O)O
T1: APLF FHA domain (residues 1-106) (UniProt Q8IW19 1-106)
T1 chain: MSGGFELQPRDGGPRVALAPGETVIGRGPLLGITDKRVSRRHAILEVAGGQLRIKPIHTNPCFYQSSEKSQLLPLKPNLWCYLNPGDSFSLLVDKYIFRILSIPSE


How the values were obtained:
Assay in all cases: ITC
[1] = biological target: aprataxin FHA domain K38A (residues 1-105)
[2] = biological target: aprataxin FHA domain (residues 1-105)
Chain of aprataxin FHA domain (residues 1-105) (chain, as listed by the source): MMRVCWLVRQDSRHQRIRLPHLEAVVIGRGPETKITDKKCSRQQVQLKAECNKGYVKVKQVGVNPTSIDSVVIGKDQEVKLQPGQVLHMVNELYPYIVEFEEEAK

[3] = biological target: T1, APLF FHA domain (residues 1-106)

Chain of aprataxin FHA domain K38A (residues 1-105) (chain, as listed by the source K38A): as the sequence (chain, as listed by the source) above, with K38A counted along it

Binder	Kd [1] [µM]	Kd [2] [µM]	Kd [3] [µM]
YDE[pS][pT]DEE[pS]-NH2 (N-terminus assumed; SMILES C[C@@H](OP(=O)(O)O)[C@H](NC(=O)[C@H](COP(=O)(O)O)NC(=O)[C@H](CCC(=O)O)NC(=O)[C@H](CC(=O)O)NC(=O)[C@@H](N)Cc1ccc(O)cc1)C(=O)N[C@@H](CC(=O)O)C(=O)N[C@@H](CCC(=O)O)C(=O)N[C@@H](CCC(=O)O)C(=O)N[C@@H](COP(=O)(O)O)C(N)=O) [XRCC4 229-237 peptide phosphorylated on Ser232, Thr233 and Ser237]	1.3	0.14	0.42
YAGSTDENTDSEEHQ (HELM PEPTIDE1{Y.A.G.S.T.D.E.N.[C[C@@H](OP(=O)(O)O)[C@H](N[*:1])C(=O)[*:2]].D.S.E.E.H.Q.[am]}$$$$V2.0; N-terminus assumed; SMILES C[C@H](NC(=O)[C@@H](N)Cc1ccc(O)cc1)C(=O)NCC(=O)N[C@@H](CO)C(=O)N[C@H](C(=O)N[C@@H](CC(=O)O)C(=O)N[C@@H](CCC(=O)O)C(=O)N[C@@H](CC(N)=O)C(=O)N[C@H](C(=O)N[C@@H](CC(=O)O)C(=O)N[C@@H](CO)C(=O)N[C@@H](CCC(=O)O)C(=O)N[C@@H](CCC(=O)O)C(=O)N[C@@H](Cc1c[nH]cn1)C(=O)N[C@@H](CCC(N)=O)C(N)=O)[C@@H](C)OP(=O)(O)O)[C@@H](C)O) [XRCC1 515-529 peptide phosphorylated solely on Thr523]		42	35
YDESTDEES (HELM PEPTIDE1{Y.D.E.S.[C[C@@H](OP(=O)(O)O)[C@H](N[*:1])C(=O)[*:2]].D.E.E.S.[am]}$$$$V2.0; N-terminus assumed; SMILES C[C@@H](OP(=O)(O)O)[C@H](NC(=O)[C@H](CO)NC(=O)[C@H](CCC(=O)O)NC(=O)[C@H](CC(=O)O)NC(=O)[C@@H](N)Cc1ccc(O)cc1)C(=O)N[C@@H](CC(=O)O)C(=O)N[C@@H](CCC(=O)O)C(=O)N[C@@H](CCC(=O)O)C(=O)N[C@@H](CO)C(N)=O) [XRCC4 229-237 peptide phosphorylated on Thr233]	6.8	2.1	3.6
YAGSTDENTDSEEHQ (HELM PEPTIDE1{Y.A.G.S.T.D.E.N.[C[C@@H](OP(=O)(O)O)[C@H](N[*:1])C(=O)[*:2]].D.[O=C([C@H](COP(=O)(O)O)N[*:1])[*:2]].E.E.H.Q.[am]}$$$$V2.0; N-terminus assumed; SMILES C[C@H](NC(=O)[C@@H](N)Cc1ccc(O)cc1)C(=O)NCC(=O)N[C@@H](CO)C(=O)N[C@H](C(=O)N[C@@H](CC(=O)O)C(=O)N[C@@H](CCC(=O)O)C(=O)N[C@@H](CC(N)=O)C(=O)N[C@H](C(=O)N[C@@H](CC(=O)O)C(=O)N[C@@H](COP(=O)(O)O)C(=O)N[C@@H](CCC(=O)O)C(=O)N[C@@H](CCC(=O)O)C(=O)N[C@@H](Cc1c[nH]cn1)C(=O)N[C@@H](CCC(N)=O)C(N)=O)[C@@H](C)OP(=O)(O)O)[C@@H](C)O) [YAGSTDENpTDpSEEHQ]		33	17
YAG[pS][pT]DEN[pT]D[pS]EEHQ-NH2 (N-terminus assumed; SMILES C[C@H](NC(=O)[C@@H](N)Cc1ccc(O)cc1)C(=O)NCC(=O)N[C@@H](COP(=O)(O)O)C(=O)N[C@H](C(=O)N[C@@H](CC(=O)O)C(=O)N[C@@H](CCC(=O)O)C(=O)N[C@@H](CC(N)=O)C(=O)N[C@H](C(=O)N[C@@H](CC(=O)O)C(=O)N[C@@H](COP(=O)(O)O)C(=O)N[C@@H](CCC(=O)O)C(=O)N[C@@H](CCC(=O)O)C(=O)N[C@@H](Cc1c[nH]cn1)C(=O)N[C@@H](CCC(N)=O)C(N)=O)[C@@H](C)OP(=O)(O)O)[C@@H](C)OP(=O)(O)O) [XRCC1 515-529 peptide phosphorylated on Ser518, Thr519, Thr523 and Ser525]		0.87	11
YDESTDEES (HELM PEPTIDE1{Y.D.E.[O=C([C@H](COP(=O)(O)O)N[*:1])[*:2]].[C[C@@H](OP(=O)(O)O)[C@H](N[*:1])C(=O)[*:2]].D.E.E.S.[am]}$$$$V2.0; N-terminus assumed; SMILES C[C@@H](OP(=O)(O)O)[C@H](NC(=O)[C@H](COP(=O)(O)O)NC(=O)[C@H](CCC(=O)O)NC(=O)[C@H](CC(=O)O)NC(=O)[C@@H](N)Cc1ccc(O)cc1)C(=O)N[C@@H](CC(=O)O)C(=O)N[C@@H](CCC(=O)O)C(=O)N[C@@H](CCC(=O)O)C(=O)N[C@@H](CO)C(N)=O) [XRCC4 229-237 peptide phosphorylated on Ser232 and Thr233]	1.9	0.25	0.47
YAGSTDENTDSEEHQ (HELM PEPTIDE1{Y.A.G.[O=C([C@H](COP(=O)(O)O)N[*:1])[*:2]].[C[C@@H](OP(=O)(O)O)[C@H](N[*:1])C(=O)[*:2]].D.E.N.T.D.S.E.E.H.Q.[am]}$$$$V2.0; N-terminus assumed; SMILES C[C@H](NC(=O)[C@@H](N)Cc1ccc(O)cc1)C(=O)NCC(=O)N[C@@H](COP(=O)(O)O)C(=O)N[C@H](C(=O)N[C@@H](CC(=O)O)C(=O)N[C@@H](CCC(=O)O)C(=O)N[C@@H](CC(N)=O)C(=O)N[C@H](C(=O)N[C@@H](CC(=O)O)C(=O)N[C@@H](CO)C(=O)N[C@@H](CCC(=O)O)C(=O)N[C@@H](CCC(=O)O)C(=O)N[C@@H](Cc1c[nH]cn1)C(=O)N[C@@H](CCC(N)=O)C(N)=O)[C@@H](C)O)[C@@H](C)OP(=O)(O)O) [XRCC1 515-529 peptide phosphorylated on Ser518 and Thr519]	12.8	1.5	8.1
YAGSTDENTDSEEHQ (HELM PEPTIDE1{Y.A.G.S.[C[C@@H](OP(=O)(O)O)[C@H](N[*:1])C(=O)[*:2]].D.E.N.T.D.S.E.E.H.Q.[am]}$$$$V2.0; N-terminus assumed; SMILES C[C@H](NC(=O)[C@@H](N)Cc1ccc(O)cc1)C(=O)NCC(=O)N[C@@H](CO)C(=O)N[C@H](C(=O)N[C@@H](CC(=O)O)C(=O)N[C@@H](CCC(=O)O)C(=O)N[C@@H](CC(N)=O)C(=O)N[C@H](C(=O)N[C@@H](CC(=O)O)C(=O)N[C@@H](CO)C(=O)N[C@@H](CCC(=O)O)C(=O)N[C@@H](CCC(=O)O)C(=O)N[C@@H](Cc1c[nH]cn1)C(=O)N[C@@H](CCC(N)=O)C(N)=O)[C@@H](C)O)[C@@H](C)OP(=O)(O)O) [XRCC1 515-529 peptide phosphorylated on Thr519]	46.3	17	30
YAG[pS][pT]DEN[pT]DSEEHQ-NH2 (N-terminus assumed; SMILES C[C@H](NC(=O)[C@@H](N)Cc1ccc(O)cc1)C(=O)NCC(=O)N[C@@H](COP(=O)(O)O)C(=O)N[C@H](C(=O)N[C@@H](CC(=O)O)C(=O)N[C@@H](CCC(=O)O)C(=O)N[C@@H](CC(N)=O)C(=O)N[C@H](C(=O)N[C@@H](CC(=O)O)C(=O)N[C@@H](CO)C(=O)N[C@@H](CCC(=O)O)C(=O)N[C@@H](CCC(=O)O)C(=O)N[C@@H](Cc1c[nH]cn1)C(=O)N[C@@H](CCC(N)=O)C(N)=O)[C@@H](C)OP(=O)(O)O)[C@@H](C)OP(=O)(O)O) [XRCC1 515-529 peptide phosphorylated on Ser518, Thr519 and Thr523]	3.8	0.5	11
